The text below walks through data of publication PMC5331220, “Oxidation of F-actin controls the terminal steps of cytokinesis” (Nature Communications, 2017).

B1: Rab35^1-175 (domain or fragment)
chain: not shown
notes: Rab35 GTPase, human, residues 1-175 (lacks the last 26 aa); Loaded with GppNHp (assay a1) or with GDP (assay a2); also called GppNHp-Rab35 1-175; GDP-Rab35 1-175; source: E. coli BL21-CodonPlus-RILP or BL21-Gold, purified (HisTrap, rTEV cleavage, Superdex-75); not shown: His6, N-terminal, cleaved
B2: Rab35^1-199 (domain or fragment)
chain: not shown
notes: Rab35 GTPase, human, residues 1-199; Loaded with GppNHp; also called GppNHp-Rab35 1-199; source: E. coli BL21-CodonPlus-RILP or BL21-Gold, purified (HisTrap, rTEV cleavage, Superdex-75); not shown: His6, N-terminal, cleaved
B3: GST-tagged MICAL1^879–1067 (domain or fragment, human, UniProt Q8TDZ2 879-1067, looked up)
chain: EEEDVPLDSDVEQALQTFAKTSGTMNNYPTWRRTLLRRAKEEEMKRFCKAQTIQRRLNEIEAALRELEAEGVKLELALRRQSSSPEQQKKLWVGQLLQLVDKKNSLVAEEAELMITVQELNLEEKQWQLDQELRGYMNREENLKTAADRQAEDQVLRKLVDLVNQRDALIRFQEERRLSELALGTGAQG
notes: source: E. coli BL21-AI, purified (glutathione Sepharose 4B)
B4: MICAL1^918-1067 wild-type (C-terminal domain of human MICAL1) (domain or fragment, UniProt Q8TDZ2 918-1067, looked up)
chain: KEEEMKRFCKAQTIQRRLNEIEAALRELEAEGVKLELALRRQSSSPEQQKKLWVGQLLQLVDKKNSLVAEEAELMITVQELNLEEKQWQLDQELRGYMNREENLKTAADRQAEDQVLRKLVDLVNQRDALIRFQEERRLSELALGTGAQG
notes: also called C-term MICAL1; source: E. coli BL21-CodonPlus-RILP or BL21-Gold, purified (HisTrap, rTEV cleavage, Superdex-75); not shown: His6, N-terminal, cleaved
B5: MICAL1^918-1067 S1 mutant (E946K, V950D, E953K, V971E, L975R, V978E) (domain or fragment, human, UniProt Q8TDZ2 918-1067, looked up)
chain: B4 chain with E29K, V33D, E36K, V54E, L58R, V61E
notes: the supplement and the results print V978E; source: E. coli BL21-CodonPlus-RILP or BL21-Gold, purified (HisTrap, rTEV cleavage, Superdex-75); not shown: His6, N-terminal, cleaved

Common to all, as to conditions: both partners purified
Experiment [1] addresses B5. As to the kind of experiment: ITC; MicroCal ITC-200, 10 °C; C-terminal MICAL1 domain 60 μM in the cell, GppNHp-Rab35 480 μM added in 2 μl aliquots; 50 mM Tris pH 8, 150 mM NaCl, 2 mM MgCl2, 2 mM TCEP, 5% glycerol; one-site model. In general terms: ITC needs no label: the signal is the heat of the interaction.
Experiment [2] has as its target T1, MICAL1^879-1067 wild-type (human, UniProt Q8TDZ2 879-1067).
T1 construct: source: E. coli BL21-CodonPlus-RILP or BL21-Gold, purified (HisTrap, rTEV cleavage, Superdex-75); not shown: His6, N-terminal, cleaved
T1 sequence (looked up): B3 chain
The description is as above.

Experiment [3] addresses B4. The description is as above.
For experiment [4], the target named is T2, His-tagged MICAL1^FAD-CH-LIM (MICAL1^1–843) (human, UniProt Q8TDZ2 1-843).
T2 construct: MICAL1, human, amino acids 1-843 (monooxygenase/FAD, CH and LIM domains); also called 6xHis-MICAL1^FAD-CH-LIM; source: E. coli BL21-AI, purified (Ni-NTA magnetic agarose beads)
T2 sequence (looked up): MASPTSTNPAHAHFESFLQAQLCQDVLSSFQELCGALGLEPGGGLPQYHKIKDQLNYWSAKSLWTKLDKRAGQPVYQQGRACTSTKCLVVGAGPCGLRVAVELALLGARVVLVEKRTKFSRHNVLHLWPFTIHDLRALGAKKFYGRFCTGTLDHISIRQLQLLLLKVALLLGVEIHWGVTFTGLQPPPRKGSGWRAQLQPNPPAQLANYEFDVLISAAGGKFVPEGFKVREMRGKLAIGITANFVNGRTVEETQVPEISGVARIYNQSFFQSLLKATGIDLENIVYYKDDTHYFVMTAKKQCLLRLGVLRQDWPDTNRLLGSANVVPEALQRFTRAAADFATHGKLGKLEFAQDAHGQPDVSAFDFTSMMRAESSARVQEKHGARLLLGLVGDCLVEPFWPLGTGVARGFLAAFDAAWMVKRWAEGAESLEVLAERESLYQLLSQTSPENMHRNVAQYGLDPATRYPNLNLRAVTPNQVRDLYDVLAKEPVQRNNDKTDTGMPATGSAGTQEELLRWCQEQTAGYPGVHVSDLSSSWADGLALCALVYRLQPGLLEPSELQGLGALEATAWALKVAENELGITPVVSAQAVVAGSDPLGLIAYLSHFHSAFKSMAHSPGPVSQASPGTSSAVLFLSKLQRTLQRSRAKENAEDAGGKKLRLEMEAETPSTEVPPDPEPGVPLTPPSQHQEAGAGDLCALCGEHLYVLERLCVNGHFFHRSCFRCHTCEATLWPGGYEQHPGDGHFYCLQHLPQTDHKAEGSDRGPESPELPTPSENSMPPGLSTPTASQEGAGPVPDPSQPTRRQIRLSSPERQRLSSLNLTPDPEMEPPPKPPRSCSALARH
As to the kind of experiment: pull-down; GST-MICAL1^879–1067 on glutathione Sepharose 4B beads, incubated with 6xHis-MICAL1^FAD-CH-LIM alone or with increasing amounts of Rab35-GppNHp in 50 mM Tris pH 8, 150 mM NaCl, 2 mM MgCl2, 1 mM DTT; anti-6xHis and anti-Rab35 blots.

The target in experiment [5] is B2. Briefly: ITC; MicroCal ITC-200, 10 °C; C-terminal MICAL1 domain 60 μM in the cell, GppNHp-Rab35 480 μM added in 2 μl aliquots; 50 mM Tris pH 8, 150 mM NaCl, 2 mM MgCl2, 2 mM TCEP, 5% glycerol; one-site model.
Experiment [6] has as its target B1. Described as above.

Where a chain is given by its changes, count along the chain named. In names and notes the source's numbering stands. Several values for one entry are separate records, joined by “and”; a condition that tells them apart may be missing. Identical values can stand only once.

One may read the stoichiometry N as the number of molecules, sites or subunits per partner or assembly. The term Kd denotes a measure of binding affinity in units of concentration. Low readings indicate a tighter complex, high ones a looser complex. For B1, the entries for the “stoichiometry N” value in experiment [1], in experiment [2] and in experiment [3] were 0.95, 0.8 and 1.09, respectively. The affinity in experiment [2], expressed as Kd, was 13 µM.

For the molecule B2, in experiment [3], the “stoichiometry N” value was 1.07.

Consider B3, for which the binding result in experiment [4] is on record as “binds”.

Regarding B4, the Kd is 4.5 µM and 5 µM and 4.8 µM in experiment [5]; 8.3 µM and 4.5 µM in experiment [6].

On to B5, for which the dissociation constant (Kd) in experiment [6] was 7.9 µM and 6.4 µM and 7.2 µM.
